From the supplement of paper PMC12042874
± gives the uncertainty stated by the source.

Assay: amyloid nucleation score (Sup35N fusion, yeast selection) (log enrichment); library NNK1; higher = more nucleation; inactive = no reads after selection
Method in brief: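 Plasmid inserts were Illumina-sequenced at input and output from psi-negative yeast expressing Sup35N fused to peptides of 20 random codons. The yeast were induced with 100 μM copper sulfate for 24 hours and grown 7 days at 30°C on medium lacking adenine and uracil, and sequences with under 100 input reads were excluded. Nucleation score is the DiMSum log enrichment of output over input reads, centred on the mode score of non-aggregating sequences.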
Substance LTGGVDHC has an amyloid nucleation score of 0.138 ± 0.32.
RMLFSYPCESISSHLILCEV showed an amyloid nucleation score of -0.181 ± 0.5.
With VKMYRAFIQGYGSLDRRQFP the amyloid nucleation score was 0.45 ± 0.42.
Substance SILCESFVGCLDAMRDRVYY has an amyloid nucleation score of -0.036 ± 0.61.
For CKQRKCLGRIYVCEHISQSL, the amyloid nucleation score was 0.461 ± 0.67.
Substance SYYMYLN has an amyloid nucleation score of -0.19 ± 0.26.
With YNSEGDRLESNESWDWMARR the amyloid nucleation score was 0.511 ± 0.57.
SVTVM showed an amyloid nucleation score of 1.74 ± 0.49.
In the case of QRRHYTWMLIRKRSSLHKAR, the amyloid nucleation score is reported as -0.462 ± 0.59.
Work on PSRATYCRGSMIHLIFDWIT yielded an amyloid nucleation score of 0.955 ± 0.54.
In the case of WVWSLWYSRDGVKVFFDRQS, the amyloid nucleation score is reported as -0.39 ± 0.34.
Work on LGMGLTKLLSNYMSGIIVPL yielded an amyloid nucleation score of -0.047 ± 1.7.
For PYWWS, the amyloid nucleation score was “inactive”.
For PGRSSRLR, the amyloid nucleation score was -0.071 ± 1.1.
For DFTCIRMNQSFVIRAFGALC, the amyloid nucleation score was 3.75 ± 0.16.
EPCMWKVILYCEYVSLVFVK gave an amyloid nucleation score of -0.974 ± 1.9.
Substance VNGYFAASDECFWCRSAGPN has an amyloid nucleation score of 0.555 ± 0.34.
With GGWDAGGGHAIRRIVECMVR the amyloid nucleation score was 0.601 ± 1.1.
For RSPIGGLLWINLRSPACEWG, the amyloid nucleation score was “inactive”.
With ELSMCYYWRKSYIQSLGIRW the amyloid nucleation score was 0.733 ± 0.27.
RIPASFRITYVDSIKCKPF gave an amyloid nucleation score of 4.15 ± 0.088.
With NGSSLVANELRVWIVSSFML the amyloid nucleation score was -0.59 ± 0.64.
Work on TVFFCNWVEPYDFNICR yielded an amyloid nucleation score of 6.763 ± 0.059.
For LYLDIWYCQIKVTFIGP, the amyloid nucleation score was “inactive”.
Substance HYGSWLCELDVVLYCDCSVM has an amyloid nucleation score of 0.021 ± 0.62.
With WRLTSS the amyloid nucleation score was -0.809 ± 0.45.
For CICRRVSKTVLSLQANEAPC, the amyloid nucleation score was -0.561 ± 0.41.
Work on NRSYNN yielded an amyloid nucleation score of -0.243 ± 0.29.
TWQNRTSLIEVTSYMFHGWV gave an amyloid nucleation score of 0.294 ± 0.59.
Work on GIRSLFGGKCWDHGSFMWKF yielded an amyloid nucleation score of -0.195 ± 0.54.
In the case of WVCSNNMHMSIANVGLDCNL, the amyloid nucleation score is reported as 0.178 ± 0.33.
Substance YMRSLFCISTQLSRAILVLP has an amyloid nucleation score of 0.478 ± 1.
With PGVSDPYLDECKVTFKI the amyloid nucleation score was 0.715 ± 0.31.
YMLRYVAWCLGPAL showed an amyloid nucleation score of 0.459 ± 0.37.
In the case of IKRKSAESNGCSLYLYDSLK, the amyloid nucleation score is reported as -0.189 ± 0.43.
Substance QGSDAYHSMNMQLWVSRTLT has an amyloid nucleation score of 0.18 ± 0.36.
Substance SYVVYCHSAMRRKGSMGRYL has an amyloid nucleation score of 0.468 ± 0.37.
Work on VVIVGAGIPWILGESAVFRC yielded an amyloid nucleation score of 0.218 ± 0.36.
Work on IDFYVCDMC yielded an amyloid nucleation score of 7.857 ± 0.058.
Work on MISIS yielded an amyloid nucleation score of 0.088 ± 0.26.
For RCASALVSGVTSVSLRTVQD, the amyloid nucleation score was 0.83 ± 0.73.
For EIWWYKVERAVLTVFREDCL, the amyloid nucleation score was “inactive”.
PFTYYFEVQLILRKT gave an amyloid nucleation score of 0.773 ± 0.79.
With VFFLGMVCAVWATFDVSYNG the amyloid nucleation score was 1.31 ± 0.35.
LWMFRFNYYDVLPCGMPGLC gave an amyloid nucleation score of 0.694 ± 0.66.
DVAPLGCGEPCYGSY gave an amyloid nucleation score of -1.22 ± 1.4.
In the case of RRYFSLYLAGSLELMFAWVM, the amyloid nucleation score is reported as -1.79 ± 2.7.
VFVVNTTESWHNLALFWSSR showed an amyloid nucleation score of 0.382 ± 0.45.
With LKGKTLVMSFFRSAKITVAH the amyloid nucleation score was “inactive”.
Work on NAFSDRLTGCRLRGGMGRTS yielded an amyloid nucleation score of -0.526 ± 0.88.
RRAYIYWNRTCFFLVILLFQ gave an amyloid nucleation score of 0.538 ± 0.84.
In the case of YWDYNNFRFFLRKLSFISRL, the amyloid nucleation score is reported as 0.822 ± 1.
Work on FWPFHDDLDVVSAFCYIRIL yielded an amyloid nucleation score of -0.707 ± 0.82.
Work on HNSLWGYFFMF yielded an amyloid nucleation score of 3.19 ± 0.12.
WGSCISFRNRGMCLILDSVC showed an amyloid nucleation score of 0.037 ± 0.37.
For LVSWSTVDVSQLTAWKKPAG, the amyloid nucleation score was -0.431 ± 0.36.
With GLLIFMITTLPFCFWCTVPR the amyloid nucleation score was “inactive”.
Work on MWPRIPLRDPVVWEHRYCGI yielded an amyloid nucleation score of -0.391 ± 0.65.
Work on KWTGRGSYNDRLFVRRRMF yielded an amyloid nucleation score of -0.073 ± 0.47.
In the case of RILEGVFS, the amyloid nucleation score is reported as “inactive”.
With RRMVTCLQLIVRNLRSCACC the amyloid nucleation score was “inactive”.
For CYCWPTTKKIPFKSL, the amyloid nucleation score was -0.739 ± 1.9.
RLLGYLAGVGNVKICRPSAV gave an amyloid nucleation score of 0 ± 1.
In the case of SVQDFPDTSNNLASYVPSSW, the amyloid nucleation score is reported as -0.292 ± 0.74.
Substance HNFEFFMGQGMIFWCRLTEN has an amyloid nucleation score of 1.24 ± 0.56.
PFVLYWGKLSYYDAD gave an amyloid nucleation score of 0.707 ± 0.55.
RNVLWMILMYRCRSGGLCNG showed an amyloid nucleation score of 0.737 ± 0.52.
With YADRFRASASPNMCDRCSLW the amyloid nucleation score was 4.01 ± 0.098.
SYPKGGLPCGWIRTPPWRFH showed an amyloid nucleation score of 0.42 ± 0.59.
Work on VRCTFLVKVDWTFYKASRPR yielded an amyloid nucleation score of 0.087 ± 0.47.
For VLCNLTVS, the amyloid nucleation score was -0.907 ± 1.8.
YTMFLPFRLR gave an amyloid nucleation score of 0.376 ± 0.8.
Substance AICKRRQLRVLSQALRLSLL has an amyloid nucleation score of 1.14 ± 0.4.
With YLQFVRQRVCWLRLRPMMKA the amyloid nucleation score was -0.183 ± 0.56.
With LDNWYISRFCCDVMTDANVD the amyloid nucleation score was -0.322 ± 0.8.
For FRKKCGVNEIYLWGDSG, the amyloid nucleation score was “inactive”.
For VDRVGYIP, the amyloid nucleation score was -0.506 ± 0.47.
QFSCIPESTYSS showed an amyloid nucleation score of 0.047 ± 0.41.
With EKYDGCIFEEKQMIAGAHGM the amyloid nucleation score was 1.15 ± 0.88.
Substance RLVSRPRSLLQCYWGLVC has an amyloid nucleation score of 0.392 ± 1.4.
With ISAMSVW the amyloid nucleation score was -0.031 ± 0.74.
Work on ELVKFIVRADNDSWVGRASV yielded an amyloid nucleation score of 0.267 ± 0.93.
In the case of ECDSAFRSQGGGLACLFRMK, the amyloid nucleation score is reported as -0.171 ± 0.42.
With GNSRQYAFNRQIHMSSGESR the amyloid nucleation score was -0.535 ± 0.66.
